pIC50, pKd: −log10 of the molar value.
Tests used:
[1] = target: HLA-A*02:01; assay: IEDB peptide-MHC binding, purified MHC/direct/fluorescence; filed as Kd, often an IC50 or EC50 that approximates it; ≥ and ≤ were set here for values at or beyond the usual limits of such assays
[2] = target: HLA-A*02:12; assay: as above; conditions: source organism: Ravn virus - Ravn, Kenya, 1987
[3] = target: HLA-A*69:01; assay: as above
[4] = target: HLA-A*31:01; assay: IEDB peptide-MHC binding, purified MHC/competitive/fluorescence; filed as Kd, often an IC50 or EC50 that approximates it; ≥ and ≤ were set here for values at or beyond the usual limits of such assays
[5] = target: HLA-A*11:01; assay: IEDB peptide-MHC binding, purified MHC/direct/fluorescence; filed as Kd, often an IC50 or EC50 that approximates it; ≥ and ≤ were set here for values at or beyond the usual limits of such assays
[6] = target: HLA-A*03:01; assay: as above
[7] = target: HLA-B*58:01; assay: IEDB peptide-MHC binding, purified MHC/competitive/radioactivity; filed as Kd, often an IC50 or EC50 that approximates it; ≥ and ≤ were set here for values at or beyond the usual limits of such assays
[8] = target: HLA-B*57:01; assay: as above
[9] = target: HLA-A*31:01; assay: as above; conditions: source organism: Dengue virus 2 Jamaica/1409/1983
[10] = target: HLA-A*68:01; assay: as above; conditions: source organism: Dengue virus 2 Jamaica/1409/1983
[11] = target: HLA-A*02:01; assay: IEDB peptide-MHC binding, purified MHC/competitive/fluorescence; ≥ and ≤ were set here for values at or beyond the usual limits of such assays; conditions: source organism: Zaire ebolavirus
[12] = target: HLA-A*11:01; assay: as above
[13] = target: HLA-A*24:02; assay: as above; conditions: source organism: Zaire ebolavirus
[14] = target: HLA-B*53:01; assay: IEDB peptide-MHC binding, purified MHC/competitive/radioactivity; filed as Kd, often an IC50 or EC50 that approximates it; ≥ and ≤ were set here for values at or beyond the usual limits of such assays; conditions: source organism: Dengue virus 2 Jamaica/1409/1983
[15] = target: HLA-B*27:05; assay: IEDB peptide-MHC binding, purified MHC/direct/fluorescence; filed as Kd, often an IC50 or EC50 that approximates it; ≥ and ≤ were set here for values at or beyond the usual limits of such assays
[16] = target: HLA-B*58:01; assay: as above
[17] = target: HLA-A*01:01; assay: as above
[18] = target: HLA-B*08:01; assay: as above; conditions: source organism: Mammarenavirus lassaense
[19] = target: HLA-B*44:02; assay: as above
[20] = target: HLA-A*31:01; assay: as above
[21] = target: HLA-B*48:01; assay: as above
[22] = target: HLA-B*18:01; assay: as above
[23] = target: HLA-B*40:01; assay: as above
[24] = target: HLA-A*68:02; assay: IEDB peptide-MHC binding, purified MHC/competitive/fluorescence; filed as Kd, often an IC50 or EC50 that approximates it; ≥ and ≤ were set here for values at or beyond the usual limits of such assays; conditions: source organism: Toxoplasma gondii
[25] = target: HLA-B*57:01; assay: IEDB peptide-MHC binding, purified MHC/direct/fluorescence; filed as Kd, often an IC50 or EC50 that approximates it; ≥ and ≤ were set here for values at or beyond the usual limits of such assays
[26] = target: HLA-B*15:17; assay: as above
[27] = target: HLA-A*32:01; assay: IEDB peptide-MHC binding, purified MHC/competitive/radioactivity; filed as Kd, often an IC50 or EC50 that approximates it; ≥ and ≤ were set here for values at or beyond the usual limits of such assays; conditions: source organism: Dengue virus 2 Peru/IQT2913/1996
[28] = target: HLA-A*68:02; assay: IEDB peptide-MHC binding, purified MHC/direct/fluorescence; filed as Kd, often an IC50 or EC50 that approximates it; ≥ and ≤ were set here for values at or beyond the usual limits of such assays
[29] = target: HLA-B*15:01; assay: as above; conditions: source organism: Giardia lamblia ATCC 50803
[30] = target: HLA-B*46:01; assay: as above; conditions: source organism: Giardia lamblia ATCC 50803
[31] = target: HLA-B*07:02; assay: as above
[32] = target: HLA-A*23:01; assay: IEDB peptide-MHC binding, purified MHC/competitive/radioactivity; filed as Kd, often an IC50 or EC50 that approximates it; ≥ and ≤ were set here for values at or beyond the usual limits of such assays; conditions: source organism: Dengue virus 2 Jamaica/1409/1983
[33] = target: HLA-A*24:02; assay: as above; conditions: source organism: Dengue virus 2 Jamaica/1409/1983
[34] = source organism: Marburg virus - Musoke, Kenya, 1980
[35] = source organism: Vibrio vulnificus
[36] = source organism: Dengue virus 2 Jamaica/1409/1983
[37] = source organism: Dengue virus 1 Brazil/97-11/1997
[38] = source organism: Zaire ebolavirus
[39] = source organism: Sudan ebolavirus
[40] = source organism: Mammarenavirus lassaense
[41] = source organism: Coxiella burnetii
[42] = source organism: Salmonella enterica
[43] = source organism: Giardia lamblia ATCC 50803
[44] = source organism: Mammarenavirus juninense
[45] = source organism: Yellow fever virus 1899/81
[46] = source organism: Dengue virus 2 Peru/IQT2913/1996
[47] = source organism: Dengue virus 1 Singapore/S275/1990
[48] = source organism: Lassa virus GA391
[49] = source organism: Dengue virus 4 Philippines/H241/1956
[50] = source organism: Rickettsia massiliae
[51] = source organism: West Nile virus
[52] = source organism: Rickettsia prowazekii
[53] = source organism: Camelpox virus M-96

ALKEAIEMV
pKd [1, 34]: 6.90 | pKd [2]: 8.40 | pKd [3, 34]: 5.75

ASILSRMAY
pKd ([4]; source organism: Vibrio vulnificus YJ016): ≤ 4.70 | pKd [5, 35]: 8.13 | pKd [6, 35]: 6.01

ASSMVNGVVR
pKd [7, 36]: 5.69 | pKd [8, 36]: 5.85 | pKd [9]: ≤ 4.36 | pKd [10]: 7.32

AVFVDENQW
pKd [8, 37]: 9.04

AVSSGKNIK
pIC50 [11]: ≤ 3.79 | pIC50 [12, 38]: 4.26

DAASSRITK
pIC50 [12, 39]: ≤ 3.92

EAIVNAQPK
pIC50 [12, 38]: 4.46 | pIC50 [13]: 4.55

EAVEDSRFW
pKd [14]: 7.89 | pKd [8, 36]: 7.65

FTSVGKLVHQ
pKd [7, 37]: 5.87 | pKd [8, 37]: 5.62

FVRSSPANF
pKd [15, 40]: ≤ 4.70 | pKd [1, 40]: ≤ 4.70 | pKd [16, 40]: ≤ 4.70 | pKd [17, 40]: ≤ 4.70 | pKd [18]: 5.68 | pKd [19, 40]: ≤ 4.70 | pKd [5, 40]: ≤ 4.70 | pKd [3, 40]: ≤ 4.70 | pKd [20, 40]: ≤ 4.70 | pKd [21, 40]: ≤ 4.70 | pKd [22, 40]: ≤ 4.70 | pKd [23, 40]: ≤ 4.70 | pKd [6, 40]: ≤ 4.70

GSSIGKMFEA
pKd [7, 37]: 5.52 | pKd [8, 37]: 6.07

HNFRAPAPV
pKd [24]: ≥ 10.00

HSGDSSCAF
pKd [16, 41]: 6.12 | pKd [25, 41]: ≤ 4.70 | pKd [26, 41]: 6.60

IVYLIDCER
pKd ([4]; source organism: Salmonella enterica subsp. arizonae): 7.05 | pKd [5, 42]: ≤ 4.70 | pKd [6, 42]: 6.03

KAAVEDEEFW
pKd ([7]; source organism: Dengue virus 3 Sri Lanka/1266/2000): 7.94

KAMSTPFSL
pKd [16, 43]: 7.82 | pKd [25, 43]: 7.07 | pKd [26, 43]: 8.89

KLNKFISPK
pKd [4, 44]: 7.59 | pKd [6, 44]: 6.65

KSAHGSPTF
pKd [25, 45]: 5.90 | pKd [26, 45]: 8.31

KSYAQMWSL
pKd [7, 46]: 8.40 | pKd [27]: 8.20 | pKd [8, 46]: 8.25

KTSLCLMMML
pKd ([8]; source organism: Dengue virus 3 China/80-2/1980): 7.73

KTSVGVNMCT
pKd [7, 47]: 5.74 | pKd [8, 47]: 5.09

LINDQLIMK
pKd [4, 48]: ≤ 4.70 | pKd [5, 40]: 6.55 | pKd [6, 40]: ≤ 4.70

LSSTRVPNYN
pKd [7, 49]: 6.69 | pKd [8, 49]: 5.22

MGFGHRIYK
pKd ([4]; source organism: Dictyostelium discoideum): 8.84 | pKd [5, 50]: 8.49 | pKd [6, 50]: 8.43

MTMPLSCTK
pKd [4, 48]: 6.17 | pKd [5, 40]: 8.64 | pKd [6, 40]: 6.21

NPLPNQDND
pIC50 [12, 39]: ≤ 3.79

NSSVNVSLTA
pKd [7, 36]: 8.00 | pKd [8, 36]: 6.36

NTIAGVAGL
pIC50 [11]: 4.50 | pIC50 [12, 38]: ≤ 3.84

RIGGVLIFR
pKd [28, 43]: ≤ 4.70 | pKd [15, 43]: ≤ 5.30 | pKd [1, 43]: ≤ 4.70 | pKd [16, 43]: 5.22 | pKd [17, 43]: ≤ 4.70 | pKd [29]: ≤ 4.70 | pKd [30]: ≤ 4.70 | pKd [25, 43]: ≤ 4.70 | pKd [5, 43]: 7.49 | pKd [3, 43]: ≤ 4.70 | pKd [20, 43]: 7.96 | pKd [21, 43]: ≤ 4.70 | pKd [22, 43]: ≤ 4.70 | pKd [31, 43]: ≤ 4.70 | pKd [23, 43]: ≤ 4.70 | pKd [6, 43]: 7.16

RLCYGGPWK
pKd [4, 51]: ≤ 4.70 | pKd [5, 51]: 6.45 | pKd [6, 51]: 6.29

RLSAAIGKAW
pKd [7, 47]: 8.21

RTLGSFTWF
pKd [16, 40]: 7.86 | pKd [26, 40]: ≥ 9.00

STYGISEDL
pKd [16, 52]: ≤ 4.70 | pKd [25, 52]: ≤ 4.70 | pKd [26, 52]: 6.59

TASGKLVTQW
pKd [7, 49]: 7.65 | pKd [8, 49]: 5.96

TWSIHAKHEW
pKd [32]: 5.71 | pKd [7, 36]: 7.83 | pKd [33]: 7.40

WSSFKKNGAI
pKd [7, 37]: 5.27 | pKd [8, 37]: 5.99

YERGNIIIF
pKd [28, 53]: ≤ 4.70 | pKd [15, 53]: ≤ 4.70 | pKd [1, 53]: ≤ 4.70 | pKd [16, 53]: ≤ 4.70 | pKd [17, 53]: ≤ 4.70 | pKd [25, 53]: ≤ 4.70 | pKd [19, 53]: ≤ 4.70 | pKd [5, 53]: ≤ 4.70 | pKd [3, 53]: ≤ 4.70 | pKd [20, 53]: ≤ 4.70 | pKd [21, 53]: ≤ 4.70 | pKd [22, 53]: 7.50 | pKd [26, 53]: ≤ 4.70 | pKd [31, 53]: ≤ 4.70 | pKd [23, 53]: 6.81

Source: the Immune Epitope Database (IEDB)
